Changes are numbered by the printed parent chain. Names may count otherwise. Read-outs that look alike come from different tables or passages of the source.
Legend:
Ad3-GFP virus [1] = experiment: Competition of Ad3-GFP virus infection on HeLa cells; assay type: cell-based, adenovirus serotype 3; settings: even at concentrations of 200 ug/ml
Description: (§1) FIG. 3A-3D. Competition of Ad3 virus by dimerized Ad3 knob mutants. FIG. 3A) Relative attachment of ^3H-labeled Ad3 virus in the presence of dimeric fiber knob mutants. 1.8×10^5 HeLa cells were incubated with Ad3 knob mutants at a concentration of 2.5 and 100 μg/ml on ice for 1 hour. Then 400 pfu/cell of ^3H-Ad3 virus was added on ice for another hour. Unbound virus particles were washed away. Attachment of virus particles incubated with PBS was taken as 100%. N=3. FIG. 3B1-3B2) Competition of Ad3-GFP virus infection on HeLa cells. 1.5×10^5 HeLa cells were seeded into 24 well plates. Cells were incubated with the Ad3 knob mutants at increasing concentrations for one hour at room temperature. 100 pfu/cell of Ad3-GFP virus were then added and GFP expression was analyzed 18 hours later by flow cytometry. FIG. 3B1) percentage of GFP positive cells. FIG. 3B2) mean fluorescence intensity. N=3. The standard deviation was less than 10%. FIG. 3C) Relative attachment of ^3H-labeled Ad3 virus in the presence of dimeric fiber knob mutants with multiple mutations. The study was performed as described in FIG. 3B) The standard deviation was less than 10%. FIG. 3D) Competition of Ad3-GFP virus infection on HeLa cells. The study was performed as described in FIG. 3C) The standard deviation was less than 10%.
FIG. 9A1-9C. Analysis of dimeric Ad3 fiber knob mutants with increased affinity to DSG2. FIG. 9A1-9A2) Competition of Ad3-GFP virus infection on HeLa cells with dimeric affinity-enhanced mutant Y250F and JO-1 (dimeric wt Ad3 fiber knob). The experimental setting is as described for FIG. 3C. FIG. 9A1) percentage of GFP positive cells. FIG. 9A2) mean fluorescence intensity. N=3. The standard deviation was less than 10%. […] 100 pfu/cell of Ad3GFP virus were then added and GFP expression was analyzed 18 hours later. […]
Functional validation. […] Transduction was measured based on GFP expression (FIG. 3B). […] Dimeric Ad3 knob mutants with combined mutations were also analyzed for their ability to compete with Ad3 virus for attachment (FIG. 3C) and infection (FIG. 3D).

soluble recombinant DSG2 = biological target: T1, soluble recombinant DSG2 (Homo sapiens, UniProt Q14126); experiment: Western blot of dimeric Ad3 fiber knob mutants with soluble recombinant DSG2 as probe; assay type: binding; settings: dimerized knob mutants compared to JO-1
T1 construct: Western blot using soluble recombinant DSG2 as a probe; purchased Leinco Technologies, Inc. (St. Louis, MO)
T1 sequence (Q14126 50-609 limits assumed): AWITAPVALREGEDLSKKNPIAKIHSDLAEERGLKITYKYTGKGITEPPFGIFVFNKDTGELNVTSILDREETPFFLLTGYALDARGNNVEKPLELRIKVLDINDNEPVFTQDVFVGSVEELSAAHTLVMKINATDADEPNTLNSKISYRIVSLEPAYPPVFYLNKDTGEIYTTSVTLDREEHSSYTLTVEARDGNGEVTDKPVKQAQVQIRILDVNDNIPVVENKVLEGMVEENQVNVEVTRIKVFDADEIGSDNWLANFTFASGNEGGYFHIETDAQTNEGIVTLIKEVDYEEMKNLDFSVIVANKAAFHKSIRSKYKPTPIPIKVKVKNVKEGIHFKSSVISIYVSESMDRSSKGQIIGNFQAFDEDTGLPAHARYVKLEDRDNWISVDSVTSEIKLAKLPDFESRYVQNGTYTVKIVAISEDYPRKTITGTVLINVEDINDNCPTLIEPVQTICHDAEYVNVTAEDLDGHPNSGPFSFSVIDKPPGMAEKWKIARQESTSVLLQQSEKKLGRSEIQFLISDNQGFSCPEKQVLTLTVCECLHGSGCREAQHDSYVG
Source text: FIG. 1A-1F. Residues found to be critically involved in binding to DSG2. FIG. 1A) Shown are the amino acid sequences of the Ad3 and Ad14p1 fiber knob. Beta sheets present in the Ad3 knob (PDB accession number 1H7Z_A) and Ad14 knob (PDB: 3F0Y_A) are indicated by lines. Black arrows indicate residues within the Ad3 fiber knob which, when mutated individually, ablate or reduce binding to DSG2. […] FIG. 1B) Schematic structure of dimeric Ad3 fiber knob mutants. The fiber knob domain and one shaft motif was fused through a flexible linker to a homodimerizing K-coil domain (41). The proteins are self-dimerizing and can be purified by His-Ni-NTA affinity chromatography. FIG. 1C-FIG. 1F) Analysis of binding of dimeric Ad3 fiber knob mutants to soluble DSG2. FIG. 1C and FIG. 1D) Coomassie staining. 10 μg of purified Ad3 fiber knob (unboiled) were loaded per lane. Trimeric forms of the fiber knobs are indicated by an arrow. The gel contained SDS and the loading buffer containing DTT, which caused the disassembly of dimers of trimeric fiber knobs as previously reported (41). FIG. 1E and FIG. 1F): Western blot using soluble recombinant DSG2 as a probe, followed by anti-DSG2-mAb and anti-mouse IgG-HRP. For comparison, JO-1 (0.5 μg/lane) is shown. The Western blots were scanned and signals were quantified.
Western Blot: Mini-PROTEAN precast gels (BIO-RAD, Hercules, CA) with 4-15% gradient polyacrylamide were used. A total of 1 μg protein mixed with 2× loading buffer (10 mM Tris-HCl, pH6.8, 200 mM DTT, 4% SDS, 20% glycerol, 0.2% bromophenol blue) was loaded per lane. Samples were either boiled (B) for 5 min or loaded unboiled (UB). The following running buffer was used: 25 mM Tris, pH8.3, 0.192 M glycine, 0.1% SDS. After electrophoresis, proteins were transferred to nitrocellulose and incubated with recombinant human DSG2 protein and anti-DSG2 antibodies as described previously (42). The Western blots were scanned and quantified using the ImageJ 1.32 software (National Institutes of Health, Bethesda, MD). JO-1 band intensity was set as 100%. […]

3H-labeled Ad3 virus = experiment: Competition of 3H-labeled Ad3 virus attachment to HeLa cells; assay type: cell-based, adenovirus serotype 3
Description: as §1, with “The study was performed as described in FIG. 3B) The standard deviation was less than 10%. FIG. 3D) Competition of Ad3-GFP virus infection on HeLa cells. The study was performed as described in FIG. 3C) The standard deviation was less than 10%.” left out
Competition assays. […] After the last wash, the supernatant was removed and the cell-associated radioactivity was determined by a scintillation counter. The number of VP bound per cell was calculated by using the virion specific radioactivity and the number of cells.

Ad3-GFP virus [2] = settings: previous studies (37, 41, 42); cited from earlier work
[3] = test system: polarized colon cancer T84 cells; settings: previous studies (37, 41, 42); cited from earlier work
DSG2 [4] = biological target: T2, DSG2 (Homo sapiens, UniProt Q14126); settings: previous studies (37, 41, 42); cited from earlier work
T2 construct: Western blot using soluble recombinant DSG2 as a probe; purchased Leinco Technologies, Inc. (St. Louis, MO)
T2 sequence (Q14126 50-609 limits assumed): T1 sequence (Q14126 50-609 limits assumed)

DSG2 [5] = biological target: T2, DSG2; experiment: Surface plasmon resonance of Ad3 fiber knobs on immobilized DSG2; assay type: binding; settings: knobs without dimerization domain
Description: FIG. 7A-7B. SPR analysis of non-dimerized Ad3 fiber knob interactions with DSG2. FIG. 7A) DSG2 was immobilized on sensorchips, and background was automatically subtracted from the control flow cell. The Ad3 fiber knobs (w/o dimerization domain: “noDD”) were injected for 3 minutes at 2.5 μg/ml followed by a 2.5 minutes dissociation period. FIG. 7B) Summary of SPR data. […] The extracted data are resumed in the table. Wt=Ad3 fiber knob without mutations FIG. 8A-8G. Electron microscopy and 3D structure of Ad3 fiber knob mutant JO-2.
Surface Plasmon Resonance: Acquisitions were done on a BIAcore 3000 instrument. HBS-N (GE-Healthcare, Pittsburgh, PA) supplemented with 2 mM CaCl2) was used as running buffer in all experiments at a flow rate of 5 [l/min. Immobilization on CM4 sensorchip (BIAcore) was performed using DSG2 at 10 μg/ml diluted in 10 mM Acetate buffer pH 4.5 injected for 10 minutes on ethyl(dimethylaminopropyl) carbodiimide (EDC)/N-Hydroxysuccinimide (NHS) activated flow-cell. A control flow-cell was activated by (EDC/NHS) and inactivated by ethanolamine. Different concentrations of Ad3 fiber knob proteins were injected for 3 minutes association followed by 2.5 minutes dissociation time, and the signal was automatically subtracted from the background of the ethanolamine deactivated EDC-NHS flow cell. Kinetic and affinity constants were calculated using the BIAeval software.

B1: N186D, D261N, L296R: dimeric Ad3 fiber knob with a combination of all three N186D, D261N, and L296R (protein)
chain: MKVSALKEKVSALKEKVSALKEKVSALKEKVSALKEGSGGGSGGGSGGGSNSIALKNNTLWTGPKPEANCIIEYGKQNPDSKLTLILVKNGGIVNGYVTLMGASDYVNTLFKDKNVSINVELYFDATGHILPDSSSLKTDLELKYKQTADFSARGFMPSTTAYPFVLPNAGTHNENYIFGQCYYKASNGALFPLEVTVMLNKRLPDSRTSYVMTFLWSLNAGRAPETTQATLITSPFTFSYIREDD
- Block of Ad3 infection (Ad3-GFP virus [1]): did not block
- DSG2 binding in Western blot, in words (soluble recombinant DSG2): highest level of ablation
- Inhibition of attachment in the presence of dimeric knob (JO-1 = 100%) (3H-labeled Ad3 virus; Ad3 virus attachment to HeLa cells, N=3, averages): 18.5%
- Block of Ad3 binding (attachment) (3H-labeled Ad3 virus; even at concentrations of 200 ug/ml): did not block

B2: Ad3 knob monomer: Recombinant (trimeric) fiber knob with two shaft motifs, but without the dimerization domain (protein)
chain: NKLCSKLGNGLTFDSSNSIALKNNTLWTGPKPEANCIIEYGKQNPDSKLTLILVKNGGIVNGYVTLMGASDYVNTLFKNKNVSINVELYFDATGHILPDSSSLKTDLELKYKQTADFSARGFMPSTTAYPFVLPNAGTHNENYIFGQCYYKASDGALFPLEVTVMLNKRLPDSRTSYVMTFLWSLNAGLAPETTQATLITSPFTFSYIREDD
modifications: left off: small tags and cut ends
notes: Recombinant (trimeric) fiber knob with two shaft motifs, but without the dimerization domain
- Block of Ad3 infection (Ad3-GFP virus [2]): not able to block Ad3 infection
- Junction opening [3]: does not trigger junction opening
- Affinity of binding to DSG2 relative to JO-1 (DSG2 [4]): orders of magnitude less than JO-1

B3: N293S/noDD (protein)
chain: B2 chain with N186S
modifications: left off: small tags and cut ends
- association rate to DSG2, in words (DSG2 [5]): lowest when compared to other mutants
- dissociation rate, in words (DSG2 [5]): slower dissociation rate

From patent publication US12466859B2, “Desmoglein 2 (DSG2) binding proteins and uses therefor” (UNIVERSITY OF WASHINGTON THROUGH ITS CENTER FOR …, priority 2013, dated 2025)
